Patent US20180251503A1 (Memorial Sloan Kettering, published 2018)

B1: GD2xCD3-HDD bispecific fusion protein (scFv5F11-scFvhOKT3 with HNF-1alpha dimerization component, Y-BT-HDD) (bispecific antibody)
scFv: QVQLQQSGPELVKPGASVKISCKTSGYKFTEYTMHWVKQSHGKCLEWIGGINPNNGGTNYNQKFKGKATLTVDKSSSTAYMELRSLTSEDSAVYYCARDTTVPYAYWGQGTTVTVSSGGGGSGGGGSGGGGSDIELTQSPAIMSASPGEKVTMTCSASSSISYMHWYQQKPGTSPKRWIYDTSKLASGVPARFSGSGSGTSYSLTISSMEAEDAATYYCHQRSSYPLTFGCGTKLEIKRASTKGPGGGGSGGGGSGGGGSQVQLVQSGGGVVQPGRSLRLSCKASGYTFTRYTMHWVRQAPGKGLEWIGYINPSRGYTNYNQKFKDRFTISRDNSKNTAFLQMDSLRPEDTGVYFCARYYDDHYCLDYWGQGTPVTVSSGGGGSGGGGSGGGGSDIQMTQSPSSLSASVGDRVTITCSASSSVSYMNWYQQTPGKAPKRWIYDTSKLASGVPSRFSGSGSGTDYTFTISSLQPEDIATYYCQQWSSNPFTFGQGTKLQITRTPLGDTTHTSGMVSKLSQLQTELLAALLESGLSKEALIQALGEGSGGAPHHHHHH
B2: GD2xCD3 bispecific fusion protein (scFv5F11-(G4S)3-scFvhOKT3, Y-BT, without dimerization component) (bispecific antibody)
scFv: QVQLQQSGPELVKPGASVKISCKTSGYKFTEYTMHWVKQSHGKCLEWIGGINPNNGGTNYNQKFKGKATLTVDKSSSTAYMELRSLTSEDSAVYYCARDTTVPYAYWGQGTTVTVSSGGGGSGGGGSGGGGSDIELTQSPAIMSASPGEKVTMTCSASSSISYMHWYQQKPGTSPKRWIYDTSKLASGVPARFSGSGSGTSYSLTISSMEAEDAATYYCHQRSSYPLTFGCGTKLEIKRASTKGPGGGGSGGGGSGGGGSQVQLVQSGGGVVQPGRSLRLSCKASGYTFTRYTMHWVRQAPGKGLEWIGYINPSRGYTNYNQKFKDRFTISRDNSKNTAFLQMDSLRPEDTGVYFCARYYDDHYCLDYWGQGTPVTVSSGGGGSGGGGSGGGGSDIQMTQSPSSLSASVGDRVTITCSASSSVSYMNWYQQTPGKAPKRWIYDTSKLASGVPSRFSGSGSGTDYTFTISSLQPEDIATYYCQQWSSNPFTFGQGTKLQITRHHHHHH
B3: Humanized OKT3 IgG (parental humanized OKT3 antibody) (antibody, V domains shown)
VH: QVQLVQSGGGVVQPGRSLRLSCKASGYTFTRYTMHWVRQAPGKGLEWIGYINPSRGYTNYNQKFKDRFTISRDNSKNTAFLQMDSLRPEDTGVYFCARYYDDHYCLDYWGQGTPVTVSS
VL: DIQMTQSPSSLSASVGDRVTITCSASSSVSYMNWYQQTPGKAPKRWIYDTSKLASGVPSRFSGSGSGTDYTFTISSLQPEDIATYYCQQWSSNPFTFGQGTKLQITR

Each binder was assayed against CD3 on T cells (Jurkat cells; purified human T cells) (human, UniProt P07766 23-207; P09693 23-182; P04234 22-171) (assay: cell-based or functional assay).
In the case of B1, the “IFN-γ release from human T cells (no tumor cells), ELISA” value (shortened to “IFN-γ release … (no tumor cells), ELISA”) is reported as 2.1 pg/mL, the “IL-2 release from human T cells (no tumor cells), ELISA” value (shortened to “IL-2 release … (no tumor cells), ELISA”) is reported as 2.2 pg/mL and the “IL-10 release from human T cells (no tumor cells), ELISA” value (from here on “IL-10 release … (no tumor cells), ELISA”) is reported as 2.1 pg/mL. For the same binder, the “TNF-α release from human T cells (no tumor cells), ELISA” value (from here on “TNF-α release … (no tumor cells), ELISA”) was 7.6 pg/mL.
In the case of B2, the “IFN-γ release … (no tumor cells), ELISA” value is reported as 1.7 pg/mL, the “IL-2 release … (no tumor cells), ELISA” value is reported as 2 pg/mL and the “IL-10 release … (no tumor cells), ELISA” value is reported as 3.6 pg/mL. The “TNF-α release … (no tumor cells), ELISA” value was 7.9 pg/mL.
In the case of B3, the “IFN-γ release … (no tumor cells), ELISA” value is reported as 228 pg/mL, the “IL-2 release … (no tumor cells), ELISA” value is reported as 36.5 pg/mL and the “IL-10 release … (no tumor cells), ELISA” value is reported as 29.8 pg/mL. The “TNF-α release … (no tumor cells), ELISA” value was 86.7 pg/mL.
